# Like-named read-outs stand apart in the source and are kept apart here.
# B1: BHA10 (antibody, V domains shown)
# VH: QVQLVQSGAEVKKPGSSVKVSCKASGYTFTTYYLHWVRQAPGQGLEWMGWIYPGNVHAQYNEKFKGRVTITADKSTSTAYMELSSLRSEDTAVYYCARSWEGFPYWGQGTTVTVSS
# VL: DIQMTQSPSSLSASVGDRVTITCKASQNVGINVAWYQQKPGKAPKSLISSASYRYSGVPSRFSGSGSGTDFTLTISSLQPEDFATYFCQQYDTYPFTFGQGTKVEIK
# notes: as disclosed in WO2004002431; also called BHA10 (anti-LTBR); monospecific anti-LTBR agonist
# Tests used:
# [1] = target: T1, human LTBR endogenously expressed on cells (HepG2, A549, A375, HCC1187, RPMI-7951, primary human breast CAFs) (human, UniProt P36941 31-435); experiment: flow cytometry, inhibition of PE-LIGHT (24 nM final) binding to A549 cells; competitor LIGHT; partial inhibition
# T1 construct: also called lymphotoxin beta receptor; TNFRSF3
# Experimental: (§1) The ability of VHH-Fc fusion proteins to bind to endogenously expressed LTBR on the A549 tumor cell and to inhibit human LIGHT (Acro, cat. no LIT-H5242) binding to A549 cells was assessed. BHA10 was employed in the assay as a positive control. Recombinant human LIGHT was labelled with PE fluorochrome, using PE/R-Phycoerythrin Conjugation Kit—Lightning-Link® (Abcam, cat no ab102918), following the manufacturer's instructions. 1×10⁶ cells were resuspended in the FACS buffer (1% BSA, 0.1% Sodium Azide in PBS), and 50 ul was added to each well ([…]) of a 96-U bottom plate. The cells were washed and resuspended in 25 ul of antibody dilution (2× final concentration) followed by 0.5 h incubation at 4° C., 25 ul of PE labelled LIGHT at 48 nM (2× final concentration) in FACS buffer was subsequently added to the cells and additionally incubated for 1 h at 4° C. […] Next, cells were extensively washed and fixed with Paraformaldehyde Solution, 4% in PBS (Thermo Scientific, cat no J19943.K2) for 20 mins, following the manufacturer's instructions. The cells were then washed, resuspended in PBS, and read on Beckman Coulter CytoFLEX. The data were analysed using FloJo V10 and GraphPad Prism v9. The IC50 and EC50 values can be found in.
# [2] = target: T1, human LTBR endogenously expressed on …; experiment: flow cytometry, A549 cells
# Experimental: In short, 1×10⁶ cells were resuspended in the FACS buffer (1% BSA, 0.1% Sodium Azide in PBS), and 50 μl was added to each well (5×10⁴ cells/well) of a 96-U bottom plate. The cells were washed once and resuspended in 50 μl/well of FACS buffer containing a 1:3, 11-point series dilutions of constructs 4.1-4.6 and clones 4.8-4.9 followed by 1 h incubation at 4° C. […] Next, cells were washed and resuspended in FACS buffer and read on Beckman Coulter CytoFLEX. The data were analysed using FloJo V10 and GraphPad Prism v9. Clone 4.7 was tested for binding to A375 (LTBR positive cell line) and the HEK293-FAP overexpressing cell line, as described in examples 2.4 and 3.5. The EC50 values can be found in.
# [3] = target: T1, human LTBR endogenously expressed on …; experiment: cell-based or functional assay
# [4] = target: T1, human LTBR endogenously expressed on …; experiment: cell-based or functional assay; remark: listed apart in the source
# [5] = target: T1, human LTBR endogenously expressed on …; experiment: flow cytometry, A549 cells; remark: listed apart in the source
# Experimental: as §1
# [6] = target: T1, human LTBR endogenously expressed on …; experiment: cell-based or functional assay; remark: listed apart in the source
binder,measurement,setting,value
B1,IC50,[1],0.67 nM
same,EC50,[2],0.055 nM
same,HepG2 reporter assay EC50 (w/o cross-linking antibody),[3],0.052 nM
same,HepG2 reporter assay EC50 (with cross-linking antibody),[3],0.029 nM
same,HCC1187 chemokine induction assay (CCL19) EC50,[4],0.53 nM
same,EC50,[5],0.78 nM
same,HepG2 Reporter assay (NFKB activation-induced luciferase activity) EC50,[6],0.012 nM
